From US20060052301A1, “Splice variants of peptide YY, neuropeptide Y, pancreatic peptide Y and Amylin, and uses thereof” (priority 2004, published 2006)

Columns and labels:
[1] = In-vitro stability study in acetate buffer (Alzet pump model, HPLC); type: physicochemical; details: 20 mM acetate buffer pH 4.0, 37° C., 28 days
Experimental: (Alzet in-vitro protocol, DURECT Corporation, Calif., USA) following the analysis of the solutions by HPLC.
In all the cases 2 or 3 different experiments were carried out.

ob/ob female mice = test: Treatment effects on body weight and food intake, continuous infusion by Alzet mini-osmotic pump; type: in vivo; details: 300 or 1000 μg/Kg/day
Experimental: Assessment of potential treatment effect on body weight and food intake by PYY variants of the present invention is performed under blinded conditions. The test system includes 40 ob/ob female mice, each about 50 g & 12 weeks of age at study initiation, in 5 groups (n=8), housed 4 per cage.
The first week, representing the first stage of the experiment, is the first acclimatization stage, when the 12 hours light and dark cycles regime is applied at the same hours of the day (light cycle is between 6:30-18:30). The viability check and clinical signs observations are checked daily.
The second week of the experiment, is the second acclimatization stage, when the same 12 hours/12 hours light and dark cycles regime is applied. At this stage, every day at the same time each day, the following parameters are assessed: daily viability check and clinical signs observations, including for example, changes in skin, fur, eyes, mucous membranes, secretions, activity and response to handling, as well as any unusual behavior, sleep and coma; body weight measurement 3 times/week; and food consumption measurement 1 time/daily for 5 days a week.
The third stage, days 15-43 (weeks 3-6 of the experiment), is the test compound administration stage.
On day 15, an Alzet mini-osmotic pump (model 2004), is surgically inserted into each test animal, under general anesthesia. […]

[2] = in rats, in rabbits, and in humans with Paget's disease; cited from earlier work

Molecule | Purity (%) (average ± stdev) ([1]; high dose (PYY[3-36] 10.6 mg/ml; PYY variant [3-42] 12.8 mg/ml)) | Purity (%) (average ± stdev) ([1]; low dose (PYY[3-36] 3.3 mg/ml; PYY variant [3-42] 3.9 mg/ml)) | body weight gain (ob/ob female mice; 28 days, versus control group) | food intake (ob/ob female mice; especially during the first days of the study) | lowering of plasma calcium [2]
PYY variant: PYY splice variant skipping exon 3, residues 3-42, SEQ ID NO:75; lacks last Tyr, adds 7 C-terminal residues SEGPDLW | 72.3 ± 0.2% | 69.2 ± 0.6% | gain significantly less weight than the control group | significant effect of reduction in the food intake | –
Amylin: 37-amino acid monomeric polypeptide hormone co-secreted with insulin from pancreatic beta cells (peptide, listed as Homo sapiens) MGILKLQVFLIVLSVALNHLKATPIESHQVEKRKCNTATCATQRLANFLVHSSNNFGAILSSTNVGSNTYGKRNAVEVLKREPLNYLPL | – | – | – | – | up to 20%
